We go through two molecules from PMC3792970, “A Single Nucleotide Polymorphism Associated with Hepatitis C Virus Infections Located in the Distal Region of the IL28B Promoter Influences NF-κB-Mediated Gene Transcription”.

Series [1] has as its target T1, NF-kB p50 (UniProt P19838 42-367). The experiment in a line: EMSA; 2 ug p50; diffuse shift; EMSA: 1X BB stated as 50 mM Tris pH 8.0, 250 mM KCl, 2.5 mM EDTA, 0.5% Triton X-100, 62.5% glycerol, 1 mM DTT; 1 ug poly(dI:dC), 10 ul, room temperature 30 min, 4% native PAGE at 4 C; pull-down: 1X BB, poly(dI:dC), RT 2 h. To be noted: protein: recombinant; chain copies: 2; label: 5'-32P on forward strand (EMSA); biotin (pull-down); blunt.

The target in series [2] is T1, NF-kB p50. The experiment in a line: EMSA; 2 ug p50; distinct bands; EMSA: 1X BB stated as 50 mM Tris pH 8.0, 250 mM KCl, 2.5 mM EDTA, 0.5% Triton X-100, 62.5% glycerol, 1 mM DTT; 1 ug poly(dI:dC), 10 ul, room temperature 30 min, 4% native PAGE at 4 C; pull-down: 1X BB, poly(dI:dC), RT 2 h. Conditions: protein: recombinant; chain copies: 2; label: 5'-32P on forward strand (EMSA); biotin (pull-down); blunt.

T1 sequence (P19838 42-367): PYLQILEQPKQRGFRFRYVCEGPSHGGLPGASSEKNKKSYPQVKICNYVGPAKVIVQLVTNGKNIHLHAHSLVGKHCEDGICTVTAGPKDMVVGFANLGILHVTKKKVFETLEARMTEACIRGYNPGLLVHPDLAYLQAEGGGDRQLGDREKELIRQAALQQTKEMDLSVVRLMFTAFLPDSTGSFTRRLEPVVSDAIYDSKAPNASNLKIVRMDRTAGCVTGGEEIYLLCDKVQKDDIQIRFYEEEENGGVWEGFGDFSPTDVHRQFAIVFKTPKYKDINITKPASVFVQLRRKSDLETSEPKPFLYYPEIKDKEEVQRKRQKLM

B1: G-T (NF813G-T) (dsDNA)
DNA 1: CCCCTGCCCTCAGTGGGCAGCCTCTGCATTCCCTCAGCTCCCTTTCTCTCTGTGA
DNA 2: TCACAGAGAGAAAGGGAGCTGAGGGAATGCAGAGGCTGCCCACTGAGGGCAGGGG
Take B1: the binding result with NF-kB p50 [1] is on record as “binds”.

B2: C-C (NFC-C849) (dsDNA)
DNA 1: CCCCTGCCCTCAGTGGGCAGCCTCTCCATCCCCTCAGCTCCCTTTCTCTCTGTGA
DNA 2: TCACAGAGAGAAAGGGAGCTGAGGGGATGGAGAGGCTGCCCACTGAGGGCAGGGG
B2: the binding result with NF-kB p50 [2] is recorded as “binds”.
